Test results reported in PMC9071465.

How the values were obtained:
[1] = target: At-HIGLE (HYL-1 Interacting GIY-YIG Like Endonuclease) from Arabidopsis thaliana, full length (Arabidopsis thaliana); experiment: SEC; Sephacryl 16/60 S-200, 20 mM Tris-HCl (pH 8.5), 5% glycerol, 5 mM beta-mercaptoethanol, 0.5 M NaCl; calibrated with gel filtration markers; oligomeric state from a standard curve
[2] = target: At-HIGLE^184-368 (C-terminal region of At-HIGLE) (Arabidopsis thaliana); experiment: SEC; Sephacryl 16/60 S-100, 20 mM Tris-HCl (pH 8.5), 5% glycerol, 5 mM beta-mercaptoethanol, 0.5 M NaCl; calibrated with gel filtration markers; oligomeric state from a standard curve

With “At-HIGLE (HYL-1 Interacting GIY-YIG Like Endonuclease) from Arabidopsis thaliana, full length (enzyme)” the stoichiometry N [1] was 2.

Work on “At-HIGLE^184-368 (C-terminal region of At-HIGLE) (domain or fragment)” yielded a stoichiometry N [2] of 2.
